Source: EP4631972A1, “SITE-SPECIFIC COUPLED PEGYLATED INTERLEUKIN-2 MUTANT WITH RECEPTOR AFFINITY PREFERENCE AND USE THEREOF” (priority 2022, dated 2024)

What was measured:
[1] = tested on: Treg cells; test: Pharmacodynamic study in cynomolgus monkeys, peripheral Treg cells; format: in vivo; details: doses ≤400 µg/kg
From the text: For information on administration and grouping, see Table 14.

[2] = Effects on body weight and physiological characteristics of mice; details: 1 mg/kg s.c. once every three days, three times
Experimental: SPF grade Balb/c mice were purchased, with 3 mice in each group. Administration was started on the day of grouping. The test substance or PBS (negative control group) was administered subcutaneously at a dose of 1 mg/kg, once every three days, for a total of three times. The mice were weighed before each administration and three days after the third administration .

[3] = tested on: Treg cells; test: P-STAT5 activation in Treg cells of human PBMCs (flow cytometry); format: cell-based; details: P-STAT5 MFI in CD3+/CD4+/CD25+ cells of human PBMCs, 30 min stimulation
Experimental: In the example, the activation effect of each mutant prepared in Example 6 on P-STAT5 in different cell subsets (Tregs, CD8+T cells, NK cells) from human PBMCs (Miaoshun Biotechnology) was detected.
Human PBMC cells were thawed and resuspended to 1.5×10^6 cells/ml in RPMI1640 medium containing 10% FBS. 100 µl was added to each well of a V-bottom 96-well culture plate. Each IL-2 mutant prepared in Example 6 was diluted 10-fold in series: 1000 nM was used as the working concentration for the first well, and then 100 µl/well of each serial dilution was added to each cultured cell, stimulated at 37°C for 30 min, and the reaction was terminated on ice. The cells were treated with a commercial fixative and permeabilization agent (BD biosciences 558049 & 558050), and stained with antibodies against CD3, CD4, CD25, and CD8 according to conventional methods. P-STAT5 antibody staining was also performed (Table 7) to detect the mean fluorescence intensity (MFI) of P-STAT5 in CD3+/CD4+/CD25+ (Treg cells) and CD8+/CD3+ cells ([…]) by flow cytometry.

B1: 80K-1PEG-IL2-N88R-N77C: IL-2 mutant N88R, N77C, conjugation site 77, PEG molecular weight 80kD (conjugate)
chain: APTSSSTKKTQLQLEHLLLDLQMILNGINNYKNPKLTRMLTFKFYMPKKATELKHLQCLEEELKPLEEVLNLAQSKC(PEG 80 kDa)FHLRPRDLISRINVIVLELKGSETTFMCEYADETATIVEFLNRWITFSQSIISTLT
activation and proliferation of peripheral blood Treg cells [1]: clear activation and proliferation
toxic side effects on mice [2]: less toxic side effects
visual observation of the mice [2]: in good condition
body weight compared with negative control ([2]; three days after the third dose): not significantly different from that of the negative control
EC50 [3]: 29.8 nM
